From patent US20240131162A1

Target: HER-2 (human) (UniProt P04626)
Assay: SPR (BIAcore), HER-2 immobilised, antibody as analyte

Question: Which koff does the source give for ch4D5 (antibody) here?
Answer: 6.3e-06 s⁻¹

Question: What about the kon of the same substance?
Answer: 110000 M⁻¹ s⁻¹
